Data reported in PMC12149299 (2025).

What was measured:
[1] = target: HIV-1 gp120 protein from the YU2.DG strain (HIV-1, UniProt P35961 32-498); assay: BLI
[2] = target: HIV-1 gp120 protein from the JRCSF.JB strain (HIV-1, UniProt P20871 32-503); assay: BLI

B1: FD22 (antibody)
chain 1: QVQLSQSGGGAVQPGKSLTLSCRAYGFHLFSYVVVWVRQTPQNGLEWVAGAASGGWPQEFMNSVRGRFSISRDDYTVSLQMNALRVDDSGLYFCAQERGLHRLDGAVKFGRWFRAWGQGSQVVVTS
chain 2: QSALTQPASVSGSPGQSITLSCTGADNSVSWYQVVPGRAPKLLIFEVNVRPSEVSDRFSGSKSGDTASLTISRLQIEDESDYYCVTRRGDVTYLFGSGTRVSVL
modifications: biotin (EZ-Link NHS-LC-Biotin) in the competition ELISA only | biotin (EZ-Link NHS-LC-Biotin) in the competition ELISA only
With B1 the Kd [1] was 12.1 nM and the Kd [2] was 18.1 nM.
